# Experimental data as given in patent US20100130424A1 (Janssen / Centocor, published 2010).
# No end group written: not given here. *: point of attachment. Succinimide(1-Et,3-yl) = CCN1C(=O)CC(*)C1=O
# T1: human CRH receptor type 2 (human, UniProt Q13324 1-411)
# T1 sequence (looked up): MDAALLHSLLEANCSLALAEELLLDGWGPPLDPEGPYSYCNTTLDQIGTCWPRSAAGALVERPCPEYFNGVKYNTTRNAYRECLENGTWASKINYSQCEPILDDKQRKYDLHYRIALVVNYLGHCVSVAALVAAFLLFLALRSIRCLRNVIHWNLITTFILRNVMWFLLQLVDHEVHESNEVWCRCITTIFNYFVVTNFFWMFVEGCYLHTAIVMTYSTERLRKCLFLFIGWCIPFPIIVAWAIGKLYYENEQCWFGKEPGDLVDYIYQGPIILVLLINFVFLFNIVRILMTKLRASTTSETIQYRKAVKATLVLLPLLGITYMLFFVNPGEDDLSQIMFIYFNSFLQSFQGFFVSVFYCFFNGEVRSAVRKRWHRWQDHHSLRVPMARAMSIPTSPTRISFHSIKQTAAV
# Target: T1, human CRH receptor type 2
# Assay: cell-based or functional assay
Binder,"Log DR against h-SCP, cAMP [log10 ratio]","pA50, cAMP"
"TKFTLSLDVPTNIMNLLFNIAKAC(Succinimide(1-Et,3-yl))NLRAQAAANAHLMAQI-NH2 (N-terminus assumed; SMILES CC[C@H](C)[C@H](NC(=O)[C@H](CCC(N)=O)NC(=O)[C@H](C)NC(=O)[C@H](CCSC)NC(=O)[C@H](CC(C)C)NC(=O)[C@H](Cc1c[nH]cn1)NC(=O)[C@H](C)NC(=O)[C@H](CC(N)=O)NC(=O)[C@H](C)NC(=O)[C@H](C)NC(=O)[C@H](C)NC(=O)[C@H](CCC(N)=O)NC(=O)[C@H](C)NC(=O)[C@H](CCCNC(=N)N)NC(=O)[C@H](CC(C)C)NC(=O)[C@H](CC(N)=O)NC(=O)[C@H](CSC1CC(=O)N(CC)C1=O)NC(=O)[C@H](C)NC(=O)[C@H](CCCCN)NC(=O)[C@H](C)NC(=O)[C@@H](NC(=O)[C@H](CC(N)=O)NC(=O)[C@H](Cc1ccccc1)NC(=O)[C@H](CC(C)C)NC(=O)[C@H](CC(C)C)NC(=O)[C@H](CC(N)=O)NC(=O)[C@H](CCSC)NC(=O)[C@@H](NC(=O)[C@H](CC(N)=O)NC(=O)[C@@H](NC(=O)[C@@H]1CCCN1C(=O)[C@@H](NC(=O)[C@H](CC(=O)O)NC(=O)[C@H](CC(C)C)NC(=O)[C@H](CO)NC(=O)[C@H](CC(C)C)NC(=O)[C@@H](NC(=O)[C@H](Cc1ccccc1)NC(=O)[C@H](CCCCN)NC(=O)[C@@H](N)[C@@H](C)O)[C@@H](C)O)C(C)C)[C@@H](C)O)[C@@H](C)CC)[C@@H](C)CC)C(N)=O) [Cys-variant of stresscopin peptide with N-Ethylsuccinimide (NES) reactive group, SEQ ID NO: 50]",-0.01,9.48 -log M
"TKFTLSLDVPTNIMNLLFNIAKAKNLRC(Succinimide(1-Et,3-yl))QAAANAHLMAQI-NH2 (N-terminus assumed; SMILES CC[C@H](C)[C@H](NC(=O)[C@H](CCC(N)=O)NC(=O)[C@H](C)NC(=O)[C@H](CCSC)NC(=O)[C@H](CC(C)C)NC(=O)[C@H](Cc1c[nH]cn1)NC(=O)[C@H](C)NC(=O)[C@H](CC(N)=O)NC(=O)[C@H](C)NC(=O)[C@H](C)NC(=O)[C@H](C)NC(=O)[C@H](CCC(N)=O)NC(=O)[C@H](CSC1CC(=O)N(CC)C1=O)NC(=O)[C@H](CCCNC(=N)N)NC(=O)[C@H](CC(C)C)NC(=O)[C@H](CC(N)=O)NC(=O)[C@H](CCCCN)NC(=O)[C@H](C)NC(=O)[C@H](CCCCN)NC(=O)[C@H](C)NC(=O)[C@@H](NC(=O)[C@H](CC(N)=O)NC(=O)[C@H](Cc1ccccc1)NC(=O)[C@H](CC(C)C)NC(=O)[C@H](CC(C)C)NC(=O)[C@H](CC(N)=O)NC(=O)[C@H](CCSC)NC(=O)[C@@H](NC(=O)[C@H](CC(N)=O)NC(=O)[C@@H](NC(=O)[C@@H]1CCCN1C(=O)[C@@H](NC(=O)[C@H](CC(=O)O)NC(=O)[C@H](CC(C)C)NC(=O)[C@H](CO)NC(=O)[C@H](CC(C)C)NC(=O)[C@@H](NC(=O)[C@H](Cc1ccccc1)NC(=O)[C@H](CCCCN)NC(=O)[C@@H](N)[C@@H](C)O)[C@@H](C)O)C(C)C)[C@@H](C)O)[C@@H](C)CC)[C@@H](C)CC)C(N)=O) [Cys-variant of stresscopin peptide with N-Ethylsuccinimide (NES) reactive group, SEQ ID NO: 47]",-0.03,9.5 -log M
"TKFTLSLDVPTNIMNLLFNIAKAKNC(Succinimide(1-Et,3-yl))RAQAAANAHLMAQI-NH2 (N-terminus assumed; SMILES CC[C@H](C)[C@H](NC(=O)[C@H](CCC(N)=O)NC(=O)[C@H](C)NC(=O)[C@H](CCSC)NC(=O)[C@H](CC(C)C)NC(=O)[C@H](Cc1c[nH]cn1)NC(=O)[C@H](C)NC(=O)[C@H](CC(N)=O)NC(=O)[C@H](C)NC(=O)[C@H](C)NC(=O)[C@H](C)NC(=O)[C@H](CCC(N)=O)NC(=O)[C@H](C)NC(=O)[C@H](CCCNC(=N)N)NC(=O)[C@H](CSC1CC(=O)N(CC)C1=O)NC(=O)[C@H](CC(N)=O)NC(=O)[C@H](CCCCN)NC(=O)[C@H](C)NC(=O)[C@H](CCCCN)NC(=O)[C@H](C)NC(=O)[C@@H](NC(=O)[C@H](CC(N)=O)NC(=O)[C@H](Cc1ccccc1)NC(=O)[C@H](CC(C)C)NC(=O)[C@H](CC(C)C)NC(=O)[C@H](CC(N)=O)NC(=O)[C@H](CCSC)NC(=O)[C@@H](NC(=O)[C@H](CC(N)=O)NC(=O)[C@@H](NC(=O)[C@@H]1CCCN1C(=O)[C@@H](NC(=O)[C@H](CC(=O)O)NC(=O)[C@H](CC(C)C)NC(=O)[C@H](CO)NC(=O)[C@H](CC(C)C)NC(=O)[C@@H](NC(=O)[C@H](Cc1ccccc1)NC(=O)[C@H](CCCCN)NC(=O)[C@@H](N)[C@@H](C)O)[C@@H](C)O)C(C)C)[C@@H](C)O)[C@@H](C)CC)[C@@H](C)CC)C(N)=O) [Cys-variant of stresscopin peptide with N-Ethylsuccinimide (NES) reactive group, SEQ ID NO: 48]",0.03,9.44 -log M
"TKFTLSLDVPTNIMNLLFNIAKAKC(Succinimide(1-Et,3-yl))LRAQAAANAHLMAQI-NH2 (N-terminus assumed; SMILES CC[C@H](C)[C@H](NC(=O)[C@H](CCC(N)=O)NC(=O)[C@H](C)NC(=O)[C@H](CCSC)NC(=O)[C@H](CC(C)C)NC(=O)[C@H](Cc1c[nH]cn1)NC(=O)[C@H](C)NC(=O)[C@H](CC(N)=O)NC(=O)[C@H](C)NC(=O)[C@H](C)NC(=O)[C@H](C)NC(=O)[C@H](CCC(N)=O)NC(=O)[C@H](C)NC(=O)[C@H](CCCNC(=N)N)NC(=O)[C@H](CC(C)C)NC(=O)[C@H](CSC1CC(=O)N(CC)C1=O)NC(=O)[C@H](CCCCN)NC(=O)[C@H](C)NC(=O)[C@H](CCCCN)NC(=O)[C@H](C)NC(=O)[C@@H](NC(=O)[C@H](CC(N)=O)NC(=O)[C@H](Cc1ccccc1)NC(=O)[C@H](CC(C)C)NC(=O)[C@H](CC(C)C)NC(=O)[C@H](CC(N)=O)NC(=O)[C@H](CCSC)NC(=O)[C@@H](NC(=O)[C@H](CC(N)=O)NC(=O)[C@@H](NC(=O)[C@@H]1CCCN1C(=O)[C@@H](NC(=O)[C@H](CC(=O)O)NC(=O)[C@H](CC(C)C)NC(=O)[C@H](CO)NC(=O)[C@H](CC(C)C)NC(=O)[C@@H](NC(=O)[C@H](Cc1ccccc1)NC(=O)[C@H](CCCCN)NC(=O)[C@@H](N)[C@@H](C)O)[C@@H](C)O)C(C)C)[C@@H](C)O)[C@@H](C)CC)[C@@H](C)CC)C(N)=O) [Cys-variant of stresscopin peptide with N-Ethylsuccinimide (NES) reactive group, SEQ ID NO: 49]",0.11,9.36 -log M
"TKFTLSLDVPTNIMNLLFNIAKAKNLRAQAC(Succinimide(1-Et,3-yl))ANAHLMAQI-NH2 (N-terminus assumed; SMILES CC[C@H](C)[C@H](NC(=O)[C@H](CCC(N)=O)NC(=O)[C@H](C)NC(=O)[C@H](CCSC)NC(=O)[C@H](CC(C)C)NC(=O)[C@H](Cc1c[nH]cn1)NC(=O)[C@H](C)NC(=O)[C@H](CC(N)=O)NC(=O)[C@H](C)NC(=O)[C@H](CSC1CC(=O)N(CC)C1=O)NC(=O)[C@H](C)NC(=O)[C@H](CCC(N)=O)NC(=O)[C@H](C)NC(=O)[C@H](CCCNC(=N)N)NC(=O)[C@H](CC(C)C)NC(=O)[C@H](CC(N)=O)NC(=O)[C@H](CCCCN)NC(=O)[C@H](C)NC(=O)[C@H](CCCCN)NC(=O)[C@H](C)NC(=O)[C@@H](NC(=O)[C@H](CC(N)=O)NC(=O)[C@H](Cc1ccccc1)NC(=O)[C@H](CC(C)C)NC(=O)[C@H](CC(C)C)NC(=O)[C@H](CC(N)=O)NC(=O)[C@H](CCSC)NC(=O)[C@@H](NC(=O)[C@H](CC(N)=O)NC(=O)[C@@H](NC(=O)[C@@H]1CCCN1C(=O)[C@@H](NC(=O)[C@H](CC(=O)O)NC(=O)[C@H](CC(C)C)NC(=O)[C@H](CO)NC(=O)[C@H](CC(C)C)NC(=O)[C@@H](NC(=O)[C@H](Cc1ccccc1)NC(=O)[C@H](CCCCN)NC(=O)[C@@H](N)[C@@H](C)O)[C@@H](C)O)C(C)C)[C@@H](C)O)[C@@H](C)CC)[C@@H](C)CC)C(N)=O) [Cys-variant of stresscopin peptide with N-Ethylsuccinimide (NES) reactive group, SEQ ID NO: 46]",0.04,9.43 -log M
"TKFTLSLDVPTNIMNLLFNIAKAKNLRCQAAANAHLMAQI (NES-PEG MW40000 on Cys 28; C-terminal amide) [Pegylated Cys-variant CRHR2 peptide agonist (NES-PEG MW40000), SEQ ID NO: 100]",1.1,8.64 -log M
"TKFTLSLDVPTNIMNLLFNIAKAKNLRCQAAANAHLMAQI (NES-PEG MW80000, branched, on Cys 28; C-terminal amide) [Pegylated Cys-variant CRHR2 peptide agonist (NES-PEG MW80000 & BRANCHED), SEQ ID NO: 101]",1.9,7.84 -log M
"TKFTLSLDVPTNIMNLLFNC(Succinimide(1-Et,3-yl))AKAKNLRAQAAANAHLMAQI-NH2 (N-terminus assumed; SMILES CC[C@H](C)[C@H](NC(=O)[C@H](CCC(N)=O)NC(=O)[C@H](C)NC(=O)[C@H](CCSC)NC(=O)[C@H](CC(C)C)NC(=O)[C@H](Cc1c[nH]cn1)NC(=O)[C@H](C)NC(=O)[C@H](CC(N)=O)NC(=O)[C@H](C)NC(=O)[C@H](C)NC(=O)[C@H](C)NC(=O)[C@H](CCC(N)=O)NC(=O)[C@H](C)NC(=O)[C@H](CCCNC(=N)N)NC(=O)[C@H](CC(C)C)NC(=O)[C@H](CC(N)=O)NC(=O)[C@H](CCCCN)NC(=O)[C@H](C)NC(=O)[C@H](CCCCN)NC(=O)[C@H](C)NC(=O)[C@H](CSC1CC(=O)N(CC)C1=O)NC(=O)[C@H](CC(N)=O)NC(=O)[C@H](Cc1ccccc1)NC(=O)[C@H](CC(C)C)NC(=O)[C@H](CC(C)C)NC(=O)[C@H](CC(N)=O)NC(=O)[C@H](CCSC)NC(=O)[C@@H](NC(=O)[C@H](CC(N)=O)NC(=O)[C@@H](NC(=O)[C@@H]1CCCN1C(=O)[C@@H](NC(=O)[C@H](CC(=O)O)NC(=O)[C@H](CC(C)C)NC(=O)[C@H](CO)NC(=O)[C@H](CC(C)C)NC(=O)[C@@H](NC(=O)[C@H](Cc1ccccc1)NC(=O)[C@H](CCCCN)NC(=O)[C@@H](N)[C@@H](C)O)[C@@H](C)O)C(C)C)[C@@H](C)O)[C@@H](C)CC)C(N)=O) [Cys-variant of stresscopin peptide with N-Ethylsuccinimide (NES) reactive group, SEQ ID NO: 51]",0.68,8.79 -log M
